Changes are numbered by the printed parent chain.
T1: human CD25 (Interleukin-2 receptor alpha chain) (human, UniProt P01589 22-272)
T1 sequence (looked up): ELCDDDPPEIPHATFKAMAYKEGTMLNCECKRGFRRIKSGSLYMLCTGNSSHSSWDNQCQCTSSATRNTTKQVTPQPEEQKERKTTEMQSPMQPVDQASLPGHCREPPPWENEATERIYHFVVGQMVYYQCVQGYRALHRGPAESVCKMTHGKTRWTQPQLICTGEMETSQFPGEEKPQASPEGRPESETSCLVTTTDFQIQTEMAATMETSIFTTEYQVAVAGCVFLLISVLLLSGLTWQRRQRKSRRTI

B1: ALD25H2 anti-CD25 antibody (antibody, V domains shown)
VH: EVQLVESGGGLVQPGRSMKLSCAASGFTFSNHAMAWVRQAPKKGLEWVAYISYDGDNTYYRDSVKGRFTISRDNAKSTLYLQIDSLRSEDTATYYCTTGGNSGYDWGQGVMVTVSS
VL: DIQMTQSPSFLSASVGDRVTINCKASQNVNKFVNWYQQKLGEAPRRLIYGTNSLQTGIPSRFSGSGSGTDYTLTISSLQPEDVATYFCQQYSSWPWTFGGGTKLELK
B2: ALD25H1 anti-CD25 antibody (antibody, V domains shown)
VH: B1 VH with T28P, N31D, E46Q, K76R, Y80F, I83M
VL: B1 VL with V33L
B3: ALD25H4 anti-CD25 antibody (antibody, V domains shown)
VH: B1 VH with A24V, K76Q, I83M
VL: B1 VL with A25G, V33L, S92T
B4: 7G7B6 monoclonal antibody (IL-2 non-competitive anti-CD25 antibody) (antibody, V domains shown)
VH: EVQLVESGGDLVQPRGSLKLSCAASGFTFSSYGMSWVRQTPDKRLELVATINGYGDTTYYPDSVKGRFTISRDNAKNTLYLQMSSLKSEDTAMYFCARDRDYGNSYYYALDYWGQGTSVTVSS
VL: QIVLSQSPAILSASPGERVTMTCRASSSVSFMHWLQQKPGSSPKPWIYATSNLASGVSARFSGSGSGTSYSLTITRVEAEDAATYYCQQWSSNPPAFGGGTKLEIK

target: T1, human CD25 (Interleukin-2 receptor …); experiment: cell-based or functional assay

Binder	IL-2 induced T-cell proliferation, Mean (control = 100)
B1	81.7
B2	78.1
B3	73
B4	55
